Assay: yeast display, Sf9 membrane polyspecificity reagent, FACS + sequencing; frameworks hold sequencing errors
Summary of the method: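 Using colony PCR, genes from sorted yeast display clones were amplified, then sequenced on MiSeq at 2 × 250 and filtered by CDR length. The clones had been stained with 10% biotinylated, detergent-solubilized Sf9 membrane reagent for 1 hour at 4 °C and sorted by FACS into low and high (top ~1%) gates on anti-HA and streptavidin fluorescence. Polyreactivity labels come from the gate of origin.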

Sequence: QVQLVESGGGLVQAGGSLRLSCAPSGFIFARNAMGWYRQAPGKERELVAVISTRGRTYYADSVKGRFTISRDNAKNTVYLQMKRLKPEDTAVYYCNADKVIGYDYWGQGTQVTVSS
- polyreactivity (PSR sort gate): high polyreactivity

Sequence: QVQLVESGGGLVQAGGSLRLSCAASGRIFYGYTMVWYRQAPGKERELVAAISWSGGSTSYADSVKGRFTISRDNAKNTVYLQMKSMKPEDTAVYYCAVRYPGYRQYWGYTYDYWGQGTQVTVSS
- polyreactivity (PSR sort gate): high polyreactivity

Sequence: QVQLVESGGGLVQAGGSLRLSCAASGRIFLVNAMGWYRQAPGKEREFVAAITDNPGSTYYADSVKGRFTISRDNAKNTVYLQMNSLKPEDTAVYYCAKQRGNKRIGYDSWGQGTQVTVSS
- polyreactivity (PSR sort gate): low polyreactivity

Sequence: QVQLVESGGGLVQAGGSLRLSSAASGNIFVYYAKGLYRHAPGKERELVAAISKRGGSTYYADSVKGRFTISRDNAKNTVYLQMNSLKPEDTAVYYCAALGHVDDSIYDYWGQGTQLTVSS
- polyreactivity (PSR sort gate): high polyreactivity

Sequence: QVQLVESGGGLVQAGGSLRLSCAASGSTFGHYTMGWYRQAPGKERELVAAITYSGGRTYYADSVKGRFTISRDNAKNTVYLQMNSLKPEDTAVYYCNAKSFRILDNFAYRVDYDYWGQGTQVTVSS
- polyreactivity (PSR sort gate): low polyreactivity

Sequence: HVQLVESGGGLVQAGGSLRLSCAASGTFTYYAMGWYRQAPGKERELVAAITWRGGNTYYADSVKGRFTISRDNAKNTVYLQMNSLKPEDTAVYYCATDYWYIRWGGYYWGQGTQVTVSS
- polyreactivity (PSR sort gate): low polyreactivity

Sequence: QVQLVESGGGLVQAGGSLRLSCAASGRTFAYNAMGWYRQAPGKEREFVAGISRSGGSTYYADSVKGRFTISRDNAKNTVYLQMNSLKPEDTAVYYCAAQFYALPNVGTKYYSWGQGTQVTVSS
- polyreactivity (PSR sort gate): low polyreactivity

Sequence: QVQLVESAGGLVQAGGSLSIICAASGFTFYGYTMGWYRQAPGKERELVAAITSDGDTNYADSVKGRFTISRDNAKNTVYLQMISLKPVDTAVYYCNADPGYYFYWWPGDYWGQGTQLTVSS
- polyreactivity (PSR sort gate): low polyreactivity

Sequence: QVQLVESGGGLVQAGGSLRLSCAASGLTIVWYGMVWYRQAPGKERELVAAITRGGSTYYADSVKGRFTISRDNAKNTVYLQMNSLKPEDTAVYYCAATSTYRARFEYWGQGTQVTVSS
- polyreactivity (PSR sort gate): high polyreactivity

Sequence: QVQLVESGGGLVQAGGSLRLSCAASGSIFPRNAMGWYRQAPGKERELVAAIRKSGGSTYYADSVKGRFTISRDNAKNTVYLQMNSLKPEDTAVYYCAKTYSVSSWQSPIYNYWGQGTQVTVSS
- polyreactivity (PSR sort gate): low polyreactivity

Sequence: QVQLVESGGGLVQAGGSLRLSCAASGRTIASYTMGWYRPAPGKERELVAAISKSGGSTYYADSVKGRFTISRDNAKNTVYLQMNSLKPEDTAVYYCAKRRSGNVRKYDYWGQGTQVTVSS
- polyreactivity (PSR sort gate): high polyreactivity

Sequence: QVQLVESGGGLVQAGGSLRLSCAASGLTFYYYAMGWYRQAPGKERELVADISYSGGSTYYADSVKGRFTISRDNAKNTVYLQMNSLKPEDTAVYYCAAEGGYTISGSYDYWGQVTQVTVSS
- polyreactivity (PSR sort gate): low polyreactivity

Sequence: QVHLVESGGGLVKAGGSLRLSCAAYGRIFSYNDMGWYRQSPGKDRELVAAISSSGGRTYYADSVKGSFTISRDNAKNTVYLQMNSMKPEDTALYYCNVLGYSYWGQGTQVTVSS
- polyreactivity (PSR sort gate): high polyreactivity

Sequence: QVQLVESGGGLVQAGGSLRLSCAASGSIFLLYAMGGYRQAPGKERELVAAITRGGGSTYYADSVKGRFTISRDNAKNTVYLQMNSLKPEDTAVYYCAKGFQNHNGRLVVAYDYWGQGTQVTVSS
- polyreactivity (PSR sort gate): low polyreactivity

Sequence: QVQLVESGRRLVQAGGSLRLSCAASGLTLYKNGMGWYRKAPGQVRELVAVISRSGGRTYYADSVKGRFTISRDNAKNTVYVQMNSLKPEDTAVYYCAARQYGPRYTYYYWGQGTQVTVSS
- polyreactivity (PSR sort gate): high polyreactivity

Sequence: QVQLVESGGGLVQAGGSLRLSCAASGSISGYYVKGWYRQAQGKERELVAAITWRGGSTYYADSVKGRFTISRDNAKNTVYLQMNSLKPEDTAVYYCNKVPGRRSTFEYWGQGTQVTVSS
- polyreactivity (PSR sort gate): high polyreactivity

Sequence: QVQLVESGGGLVQAGGSLRLSCAASGRTIASYTMGWYRQAPGKERELVAAISKSGGSTYYADSVKGRFTISRDNAKNTVYLQMNSLKPEDTAVYYCAAGVPFWFWFEMDYWGQGTQVTVSS
- polyreactivity (PSR sort gate): high polyreactivity

Sequence: QVQLVESGGGLVQAGVSLRLSCAASGRTFRRYVMGWNRQAPGKERELVASITRGTGTDYADSVKGRFTISRDNRMNTVYLQMNSLKPEDTAVYYGNVKFGQPIYGEFDYWGQGTQVTVSS
- polyreactivity (PSR sort gate): low polyreactivity

Sequence: QVQLVESGGGLDQAGGSLRLSCAASGRTFGYYTMGWYRQAPWKERELVARINYIGSSTYYADSVKGRFTISRDNAKNTVYLQLNSLKREDTAVYYCNADTARGRSGVRRYYWGQGTQVTVSS
- polyreactivity (PSR sort gate): high polyreactivity

Sequence: QVQLVESGRGLVQAGGSLRLSCAASGRIGKYAMGWYRQAPGKERELVATISSTGTTNYADSVKGRFTISRDNAKNTVYLQMNSLKPDDTAVYYCAAVRHKEYDYWGQGTQVTVSS
- polyreactivity (PSR sort gate): high polyreactivity

Sequence: QVQLVESGGCLVQAGGSLRLSSPASGITFPDYDMGWYRQAPGKERELVAAITYRSGSTYYADSVKGRFTISRDNAKNTVYFQMNSLKPEDTAVYYCAAKRFLLRYYTKQYNYWGQGTQVTVSS
- polyreactivity (PSR sort gate): high polyreactivity

Sequence: QVQLVESGGGLVQAGGSLRLSCAASGSTFASYAMGWNRQAPGKEREFVAAISRSGGSTYYADSVKWRFTISRDNAKNTVYLQMNSLKPEDTAVYYCAARSPSADEYYFWGQGTQVTVSS
- polyreactivity (PSR sort gate): low polyreactivity

Sequence: QVQHVESGGGLVQAGGSLRLSCAAYGFTFVRYAKGWYRQAPGKEREFVASISARGGNTFYADSVKGRFTISRDNAKNTVFLQMNSLKPEDTAVYYCAKRGPYGTGYGYWGQGTQVTVSS
- polyreactivity (PSR sort gate): high polyreactivity

Sequence: QVQLVESGGGLVQAGGSLRLSSAASGSIFGSYAMGWYRQAPGKERELVAAITSGGSTYADSVKGRFTISRDNAKNTVYLQMNSLKPEDTAVYYCNAKFYQSTSNLVQSEYDYWGQGTQVTVSS
- polyreactivity (PSR sort gate): low polyreactivity

Sequence: QVQLVESRGGLVQAGGSLRLSCAASGITFYTYTMGWYRQAPGKERELVAVISASGARTYYADSVKGRFTISRDNAKNTVYLQMNSLKPEDTAVYYFAARSFYISPWRFDYWGQGTQVTVSS
- polyreactivity (PSR sort gate): high polyreactivity

Sequence: QVQLVESGGGLVQAGGSLRLSCAASGRTFYRYAMGWYRQAPGKERELVAAISSGGSTNYADSVKGRFTISRDNAKNTVYLQMNSLKPEDTAVYYCAAETRLHRQDYDYWGQGTQVTVSS
- polyreactivity (PSR sort gate): low polyreactivity

Sequence: QVQLVESGRGLFQAGGSLRLSCAASGSTFYTNAMVWYRQAPGKEWELVATITSSGGITSYADSVKGRFTISRDNAKITVYLHMNSLKPEDTAVYYCAADFGASYDTHEYGYWGQGTQVTVSS
- polyreactivity (PSR sort gate): low polyreactivity

Sequence: QVQLVESGGGLVQAGGSLRLSCAASGRIFNPNVMGWYRQAPGKERELVAAISWSGDTTYYADSVKWRFTISRDNAKNTVYLQMNSLKPEDTEVYYCATESDGYAYENYEYWGQGTQVTVSS
- polyreactivity (PSR sort gate): high polyreactivity

Sequence: QVQLVESGGGLVQAGGSLRLSCAASGRIFVYYAMGWYRQAPGKERELVATISSGGSTYYADSVKGRFTISRDNAKNTVYLQMNSLKPEDTAVYYCAADNVNRYLAYYYKGDYWGQGTQVTVSS
- polyreactivity (PSR sort gate): low polyreactivity

Sequence: QDQLVESGGGLVQAGGSLRLSCAASGRTFDNYAMGWYRQAPGKERELVARITDTGGSTYYADSVKGRFTISRDNAKNTVYLQMNSLKPEDTAVYYCAADSYPFAWYWLYYYWGQGTQVTVSS
- polyreactivity (PSR sort gate): low polyreactivity

Sequence: QVQLVESGGGLVQAGGSLRLSCAASGSIFPFNAMGWYRQAPGKERELVAAITRSGGSTYYADSVKGRFTISRDNAKNTVYLQMNSLKPEDTAVYYCANDPEWPLPDFYYWGQGTQVTVSS
- polyreactivity (PSR sort gate): low polyreactivity

Sequence: QVQLVESGGGLVQAGGSLRLSCAASGRIFLGYAMGWYRQAPGKEREFVAAITSSGGSTYYADSVKGRFTISRDNAKNTVYLLMNSLKPEDTAVYYCAARVTKLRTSSLRGYWGQGTQVTVSS
- polyreactivity (PSR sort gate): high polyreactivity

Sequence: QVQLVESGGGLVQPGGSLRLSCAASGSIFTRNAMGWYRQAPGKERELVAAITKRGGSTYYADSVKGRFTISRDNAKNTVYLQMNSLKPEETAVYSCAADVYKYKHTQEYHVGRMDYWGQGTQVTVSS
- polyreactivity (PSR sort gate): low polyreactivity

Sequence: QDQLVESGGGLVQAGGSLRLSCAASGSIFWSNAMGWYRQAPGKERELVASISSSGSTYYADSVKGRFTISRDNAKNTVYLQMNSLKPEDTGVYYCAAGSAYYSQRYFAYGYDSWGQGTQVTVSS
- polyreactivity (PSR sort gate): low polyreactivity

Sequence: QVQLVESGGGLVQAGGSLRLSCAASGSTLYPYDMGWYRQAPGTERELVAAIDSGGSTNYADSVKGRFTISRDNAKNTVYLQMNSLKPEDTAVYFFAADASGENDYWGQGTQVTVSS
- polyreactivity (PSR sort gate): low polyreactivity

Sequence: QVQLVESGGGLVQAGGSLRLSCAASGNIFPYYAMGWYRQAPGKERELVASITWSGGRTYYADSVKGRFTISRDNAKNTVYLQMNSLKPEDTAVYYCARRRVYRWYTGDYWGQGTQVTVSS
- polyreactivity (PSR sort gate): low polyreactivity

Sequence: QVQLVESGGGLFQAGRSLRLSCAASGITFGYYGMGWYRQAPVKERELVATISQRGGSTYYAVSVKGRFTISRDNAKNTVYLQMNSLKPEDTAFYYSNADAYRYYDYDLLFHYDYWGQGTQVTVSS
- polyreactivity (PSR sort gate): low polyreactivity

Sequence: QVQLVESGGGLVQSGGSLRLSCAASGLTFKENVMGWYRQAPGKERELVAAISTGASTYYADSVKGRFTISRDNAKNTVYLQMNSLKPEDTAVYYCAKRVTRWYGYWGQGTQVTVSS
- polyreactivity (PSR sort gate): high polyreactivity

Sequence: QVQLVESGGGLVQAGGSLRLSCAASGFTFNWYAMGWYRQAPGKERELVAAINSSGGNTYYADSVKGRFTISRDTAKNTVYLQMNSLKPDDTAVYYCVFVYVYDYYYWGQGTQVTVSS
- polyreactivity (PSR sort gate): high polyreactivity

Sequence: QVQLVESGGGLVQAGGSLRLSCAASGIISGRNTMGWFRLARGKERELVAAISGSGGSTHYADSVKGRFPSSRDNAKNTVYLQSNSLKPEDTAVYYCAADTAYVYSMDYWGQGTQVTVSS
- polyreactivity (PSR sort gate): high polyreactivity

Sequence: QVQLVESGGGLVQAGGSLRLSCAASGRTFPGYAMGWYRQAPGKERELVASITSRGGITYYADSVKGRFTISRDNAKNTVYLQMNSLKPEDTAVYYCATDFAVTKMEYWGQGTQVTVSS
- polyreactivity (PSR sort gate): low polyreactivity

Sequence: QVQLVESGGGLVQAGGSLRLSCAAYGSTFTYYAMGWYRQAPGKERELVAAISSSGGSTYYADSVKGRFTISRDNAKNTVYFQMNSLKPEDTAVYYCAARRKFPYRHDYWGQGTQVTVSS
- polyreactivity (PSR sort gate): high polyreactivity

Sequence: QFQLVESGGGLVQAGGTLRLSCAPSGFTFTLNPLGWYRQAPGKERQLVATIDWSGTSTYYADSVKGRFRISRDKAKNTFYLQMNCMKPVDTAVYYCARVYQGYPGFYDGEYWGQGNQVTVSS
- polyreactivity (PSR sort gate): low polyreactivity

— the nanobody polyreactivity screen of Harvey et al. (2022)
